These results are taken from article doi:10.1101/2025.04.29.651185.

Test [1] deals with flotillin-associated rhodopsin from the marine SAG AG-319-B05 Pseudothioglobus (PsFAR) (Pseudothioglobus sp. (SAG AG-319-B05)). Nature of the test: cryo-EM structure.
The target in test [2] is proteorhodopsin from the marine SAG AG-319-B05 Pseudothioglobus (PsPR) (Pseudothioglobus sp. (SAG AG-319-B05)). Briefly: cryo-EM structure.

Substance “flotillin-associated rhodopsin from the marine SAG AG-319-B05 Pseudothioglobus (PsFAR) (natural protein)” yielded a stoichiometry N in test [1] of 5.

In turn, “proteorhodopsin from the marine SAG AG-319-B05 Pseudothioglobus (PsPR) (natural protein)” yielded a stoichiometry N in test [2] of 5.
